Experiment [1] concerns the target Coprobacillus sp. D7 FaRel2 toxin, catalytically impaired Y128F variant (Coprobacillus sp. D7).
The target in experiment [2] is FaRel2-Δ166–206 (Coprobacillus sp. D7). As to the kind of experiment: ITC; ATfaRel2 or variant in the syringe at 200-150 uM, FaRel2 in the cell at 15-20 uM; 25 °C; 25 mM HEPES pH 7.6, 300 mM NaCl, 2 mM MgCl2, 1 mM TCEP. For orientation: Isothermal titration calorimetry measures the heat released or taken up as one component is titrated into another.

The term Kd denotes the constant that tells how readily two partners part at equilibrium. Low values mean tighter binding, high ones weaker binding. By stoichiometry N is commonly meant a count of units in the complex or per binding partner.

In experiment [1], ATfaRel2 Y51A (natural protein) came in with a Kd of 1520 nM and a stoichiometry N of 0.9.

In experiment [1], ATfaRel2 A50M (natural protein) gave a stoichiometry N of 1.1.

In experiment [1], ATfaRel2 I45A (natural protein) displayed a Kd of 868 nM and a stoichiometry N of 0.91.

ATfaRel2 Y54A (natural protein): in experiment [1], the Kd amounted to 8750 nM and the stoichiometry N came out at 0.92.

Regarding “Coprobacillus sp. D7 ATfaRel2 antitoxin (natural protein)”, in experiment [1], the stoichiometry N worked out at 1.1.

Substance “ATfaRel2 antitoxin (wild type) (natural protein)” had an equilibrium dissociation constant (Kd) in experiment [2] of 3300 nM.

ATfaRel2 V43A (natural protein) came in with a stoichiometry N in experiment [1] of 0.97.

In experiment [1], ATfaRel2 F59A (natural protein) yielded a Kd of 2150 nM and a stoichiometry N of 0.99.

Source of the values: paper PMC11782079.
